{
  "source": "patent US20030166567",
  "key": {"[1]": {"system": "10-mer (SEQ ID NO:13) cleavage domain peptide"}, "[2]": {"system": "19-mer (SEQ ID NO:11) cleavage domain peptide"}, "[3]": {"system": "9-mer (SEQ ID NO:12) cleavage domain peptide"}},
  "data": [
    {"substance": "Active MMP-9 enzyme", "values": [
      {"measurement": "extended time course of MMP-9 catalyzed hydrolysis of collagen", "setting": "[1]", "result": "The 10-mer (SEQ ID NO:13) peptide is less effective at preventing the destruction of collagen at long time points (FIG. 9) than is the 9-mer (SEQ ID NO:12) peptide (FIG. 10)"},
      {"measurement": "extended time course of MMP-9 catalyzed hydrolysis of collagen", "setting": "[2]", "result": "the 19-mer (SEQ ID NO:11) effectively inhibits the MMP-9 catalyzed hydrolysis of collagen to beyond 1000 minutes"},
      {"measurement": "extended time course of MMP-9 catalyzed hydrolysis of collagen", "setting": "[3]", "result": "The 10-mer (SEQ ID NO:13) peptide is less effective at preventing the destruction of collagen at long time points (FIG. 9) than is the 9-mer (SEQ ID NO:12) peptide (FIG. 10)"}
    ]}
  ]
}
